Biological target: T1, recombinant human VEGF165 protein (human, UniProt P15692 27-191)
T1 chain: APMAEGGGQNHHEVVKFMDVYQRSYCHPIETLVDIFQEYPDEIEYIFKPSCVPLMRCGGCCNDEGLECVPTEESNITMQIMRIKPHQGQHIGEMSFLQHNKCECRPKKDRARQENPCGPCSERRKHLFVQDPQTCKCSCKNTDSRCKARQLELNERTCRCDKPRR
Experiment: competitive ELISA (blocking of biotin-VEGF binding to VEGFR1)

- IC50: < 1 nM
B1: murine PV19 monoclonal antibody (antibody, V domains shown)
VH: QPGGAFWMCVSGGKVTISCKASGYSFTNSGINWVKQAPGKGLKWMGWINTYTGEPTYADDFKGRFAFSLETSASSAYLQINNLKNEDTATYFCARFGDGYYWFFDVWGAGTTVTVS
VL: DIVMSQSPSSLAVSAGEKVTLSCKSSQSLLNSRTRKNFLAWYQQKPGQSPKLLIYWASTRESGVPDRFTGSGSGTDFTLTISSVQAEDLAVYYCKQSYNLYTFGGGPT

— US20160039921A1 (published 2016)
